Experimental data as given in patent publication US20260234245A1.

What was measured:
[1] = molecular target: human L1CAM on the surface of human cancer cell lines (human) (UniProt P32004); assay: flow cytometry on Panc-1 cells, PE-labeled isotype control (background), mean of triplicates
[2] = molecular target: human L1CAM on the surface of human cancer cell lines (human) (UniProt P32004); assay: flow cytometry on HeLa cells, PE-labeled isotype control (background), mean of triplicates
[3] = molecular target: human L1CAM on the surface of human cancer cell lines (human) (UniProt P32004); assay: flow cytometry on PC-03 cells, PE-labeled isotype control (background), mean of triplicates
[4] = molecular target: human L1CAM on the surface of human cancer cell lines (human) (UniProt P32004); assay: flow cytometry on SKOV3 cells, PE-labeled isotype control (background), mean of triplicates
[5] = molecular target: human L1CAM on the surface of human cancer cell lines (human) (UniProt P32004); assay: flow cytometry on SKOV3 cells, PE-labeled antibody, mean of triplicates
[6] = molecular target: human L1CAM on the surface of human cancer cell lines (human) (UniProt P32004); assay: flow cytometry on Panc-1 cells, PE-labeled antibody, mean of triplicates
[7] = molecular target: human L1CAM on the surface of human cancer cell lines (human) (UniProt P32004); assay: flow cytometry on SKOV3 cells, against PE-labeled isotype control MOPC-173
[8] = molecular target: human L1CAM on the surface of human cancer cell lines (human) (UniProt P32004); assay: flow cytometry on Panc-1 cells, against PE-labeled isotype control MOPC-173
[9] = molecular target: human L1CAM on the surface of human cancer cell lines (human) (UniProt P32004); assay: flow cytometry on HeLa cells, PE-labeled antibody, mean of triplicates
[10] = molecular target: human L1CAM on the surface of human cancer cell lines (human) (UniProt P32004); assay: flow cytometry on PC-03 cells, against PE-labeled isotype control MOPC-173
[11] = molecular target: human L1CAM on the surface of human cancer cell lines (human) (UniProt P32004); assay: flow cytometry on PC-03 cells, PE-labeled antibody, mean of triplicates
[12] = molecular target: human L1CAM on the surface of human cancer cell lines (human) (UniProt P32004); assay: flow cytometry on HeLa cells, against PE-labeled isotype control MOPC-173

Chain of human L1CAM on the surface of human cancer cell lines (human) (P32004 20-1257): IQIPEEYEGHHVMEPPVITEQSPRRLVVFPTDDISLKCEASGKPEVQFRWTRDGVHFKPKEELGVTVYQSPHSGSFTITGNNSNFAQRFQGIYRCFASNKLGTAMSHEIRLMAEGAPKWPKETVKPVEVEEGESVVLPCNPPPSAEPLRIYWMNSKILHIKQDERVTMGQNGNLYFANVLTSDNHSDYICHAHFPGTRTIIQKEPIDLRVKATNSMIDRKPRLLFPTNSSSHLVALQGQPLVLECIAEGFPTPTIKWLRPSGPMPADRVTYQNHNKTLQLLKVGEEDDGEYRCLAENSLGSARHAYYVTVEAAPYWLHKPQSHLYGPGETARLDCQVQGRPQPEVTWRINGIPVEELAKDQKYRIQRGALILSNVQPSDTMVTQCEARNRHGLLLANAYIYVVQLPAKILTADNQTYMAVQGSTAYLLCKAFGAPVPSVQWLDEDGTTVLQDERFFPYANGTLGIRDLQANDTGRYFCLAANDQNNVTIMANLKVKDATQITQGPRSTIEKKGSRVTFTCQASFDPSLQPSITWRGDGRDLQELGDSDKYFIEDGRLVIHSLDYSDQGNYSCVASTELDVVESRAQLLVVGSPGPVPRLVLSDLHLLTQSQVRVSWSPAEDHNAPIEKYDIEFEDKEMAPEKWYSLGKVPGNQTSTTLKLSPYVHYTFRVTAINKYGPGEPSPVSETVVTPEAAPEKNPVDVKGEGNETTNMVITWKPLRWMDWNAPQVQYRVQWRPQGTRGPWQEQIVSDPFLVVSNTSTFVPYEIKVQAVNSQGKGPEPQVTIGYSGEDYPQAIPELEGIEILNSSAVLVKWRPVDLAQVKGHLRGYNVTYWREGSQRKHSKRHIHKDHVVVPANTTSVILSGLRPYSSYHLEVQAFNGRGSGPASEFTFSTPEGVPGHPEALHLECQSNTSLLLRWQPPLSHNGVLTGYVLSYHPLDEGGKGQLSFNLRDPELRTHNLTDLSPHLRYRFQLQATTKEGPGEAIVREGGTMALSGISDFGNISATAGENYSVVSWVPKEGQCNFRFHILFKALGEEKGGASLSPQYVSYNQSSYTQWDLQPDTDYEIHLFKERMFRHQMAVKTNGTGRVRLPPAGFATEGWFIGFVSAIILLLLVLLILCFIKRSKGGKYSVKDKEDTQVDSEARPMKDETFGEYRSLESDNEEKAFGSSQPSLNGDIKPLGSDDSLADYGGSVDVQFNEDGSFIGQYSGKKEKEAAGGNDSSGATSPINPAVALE

Row | MFI isotype control antibody [1] | MFI isotype control antibody [2] | MFI isotype control antibody [3] | MFI isotype control antibody [4] | MFI anti-L1CAM antibody [5] | MFI anti-L1CAM antibody [6] | Fold increase in MFI (anti-L1CAM vs isotype) [7] | Fold increase in MFI (anti-L1CAM vs isotype) [8] | MFI anti-L1CAM antibody [9] | Fold increase in MFI (anti-L1CAM vs isotype) [10] | MFI anti-L1CAM antibody [11] | Fold increase in MFI (anti-L1CAM vs isotype) [12] | Substance
1 | 13100 MFI | 9140 MFI | 9420 MFI | 8680 MFI | – | – | – | – | – | – | – | – | PE-labeled mouse IgG2a (κ) (clone MOPC-173, BioLegend) (antibody)
2 | – | – | – | – | 1.5e+06 MFI | 183000 MFI | 173 fold | 14 fold | 1.22e+06 MFI | 5 fold | 46400 MFI | 133 fold | phycoerythrin (PE)-labeled anti-human L1CAM antibody (clone L1-OV198.5, BioLegend)
